Consider 1 substance from paper doi:10.1101/525659.

This experiment concerns the target His6-tagged αSyn (human) (UniProt P37840). The experiment in a line: BLI.

The substance “E234G/H363A-HYPE (from UniProt Q9BVA6 102-458) (enzyme)” returned an equilibrium dissociation constant (Kd) of 15.3 µM.
